Laboratory results published in paper PMC9190012, “Heparin activation of protein Z-dependent protease inhibitor (ZPI) allosterically blocks protein Z activation through an extended heparin-binding site” (The Journal of Biological Chemistry, 2022).

What was measured:
Type in all cases: biochemical
[1] = target: T1, FXa (Homo sapiens, UniProt P00742); assay: Unaccelerated ZPI–FXa reactions: kinetics and stoichiometry of inhibition; conditions: for ka,app: absence of PZ, 2.5 mM CaCl2, pH 7.4, 25 °C
T1 construct: purchased Enzyme Research Laboratories
Description: (§1) Apparent second-order rate constants for unaccelerated and H50-accelerated ZPI–FXa reactions were measured in the absence and presence of the optimal H50 concentration under pseudo–first-order conditions by analyzing full ZPI–FXa reaction progress curves over the ZPI concentration range of 10 to 900 nM with ∼0.5 nM FXa. Full reaction progress curves were also measured for ZPI–FXa reactions in the presence of PZ equimolar with ZPI, 25 μM lipid, and 5 mM CaCl2, as a function of the ZPI concentration in the range of 10 to 40 nM. Identical reaction mixtures were quenched at varying reaction times with substrate, and the time course of protease inactivation was measured from the decrease in initial rates of substrate hydrolysis. The first-order rate of decrease in protease activity with time was computer fit by a single exponential decay function with a nonzero end point and kobs obtained from the fitted exponential decay constant. Apparent second-order association rate constants (ka,app) were obtained from the slopes of linear plots of kobs versus the ZPI concentration according to the equation, kobs=kd+ka,app × [ZPI]0
(§2) In which kd represents the rate constant for ZPI–FXa complex dissociation and [ZPI]o is the total ZPI concentration. kd was fixed at the experimentally determined value of 10^−4 s^−1 for WT and ZPI mutants as described ([18]).
(§3) Fixed concentrations of FXa (50–100 nM FXa) were reacted with increasing concentrations of ZPI, ranging from a approximately threefold to sevenfold molar excess, in the absence of cofactors or in the presence of either 1 μM H50 or PZ equimolar with ZPI, 25 μM lipid, and 5 mM CaCl2, in kinetics buffer at 25 °C in reaction volumes of 50 μl. After allowing sufficient time to reach a reaction end point, based on measured second-order associate rate constants (∼5–30 min), remaining proteolytic activity was measured by reacting an aliquot (5–20 μl) of the reaction mixtures with 1 ml of 100 μM Spectrozyme fXa (American Diagnostica) containing 50 μg/ml Polybrene and 5 mM EDTA and monitoring the rate of absorbance change at 405 nm. The apparent SI was determined from the fitted abscissa intercept of a linear plot of residual protease activity against the molar ratio of inhibitor to protease ([18]). Because the ZPI–PZ complex dissociates to a small extent over the reaction time, apparent SIs depend on the time of incubation. To correct for such complex dissociation, apparent SIs were multiplied by the factor, exp (−kd × t), where kd is the measured complex dissociation rate constant of 10^−4 s^−1 and t the fixed reaction time. Simulations verified the validity of this correction for small extents of dissociation. Reported SIs are average values of at least two independent measurements at different reaction times.

[2] = target: T1, FXa; assay: PZ-accelerated ZPI–FXa reactions: kinetics and stoichiometry of inhibition; conditions: for SI / ka,app × SI / ka,app × SI relative to WT: PZ-accelerated; for ka,app: equimolar PZ, 25 μM phospholipid, 5 mM CaCl2, pH 7.4, 25 °C; for PZ enhancement: ratio of PZ-accelerated to unaccelerated ka,app × SI
Description: as §1, §2, §3

[3] = target: T1, FXa; assay: H50 heparin-accelerated ZPI–FXa reactions: kinetics and stoichiometry of inhibition; conditions: for SI / ka,app × SI / ka,app × SI relative to WT: 1 μM H50; for ka,app: 1 μM H50, 2.5 mM CaCl2, pH 7.4, 25 °C; for H50 rate enhancement: ratio of heparin-accelerated to unaccelerated ka,app × SI
Description: Heparin accelerating effects on the kinetics of ZPI–FXa reactions were evaluated as a function of heparin concentration under pseudo–first-order conditions (i.e., with a large molar excess of inhibitor over protease) by incubating reaction mixtures of 100 μl containing 70 nM ZPI and ∼0.5 nM FXa in the absence or presence of varying levels of H50 ranging from 10^−9 to 10^−4 M in 20 mM Tris buffer (pH 7.4), 0.1 M NaCl, 0.1% PEG 8000, 0.1 mg/ml BSA, and 2.5 mM CaCl2 at 25 °C for reaction times of 2 to 5 min. Reactions were quenched by adding 1 ml of 50 μM Pefafluor FXa substrate (Centerchem, Inc) containing 50 μg/ml polybrene and 5 mM EDTA. The initial linear rate of substrate hydrolysis was monitored at an excitation wavelength of 380 nm and an emission wavelength of 440 nm. The observed pseudo–first-order rate constant for reactions (kobs) was calculated from the equation, kobs=In([vo-v∞]/[vt-v∞])/t
where vt and v∞ are the initial velocities of protease hydrolysis of the substrate after reaction with ZPI for the fixed reaction time and after reaching the reaction end point, respectively, vo is the velocity measured in control reactions without ZPI, and t is the fixed reaction time. The dependence of kobs on heparin concentration was computer fit by nonlinear least squares analysis by the ternary complex bridging model equation ([10]).
as §1, §2
as §3, with “Simulations verified the validity of this correction for small extents of dissociation. Reported SIs are average values of at least two independent measurements at different reaction times.” left out

T1 sequence (P00742 235-488 limits assumed): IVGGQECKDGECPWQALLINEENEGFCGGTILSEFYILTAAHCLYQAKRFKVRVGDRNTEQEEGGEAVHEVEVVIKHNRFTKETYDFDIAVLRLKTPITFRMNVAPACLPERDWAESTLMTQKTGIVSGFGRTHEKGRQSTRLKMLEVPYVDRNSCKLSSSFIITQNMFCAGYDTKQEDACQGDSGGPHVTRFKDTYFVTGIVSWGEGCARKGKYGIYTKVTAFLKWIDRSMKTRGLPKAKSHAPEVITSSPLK
T1 sequence (P00742 41-179 limits assumed): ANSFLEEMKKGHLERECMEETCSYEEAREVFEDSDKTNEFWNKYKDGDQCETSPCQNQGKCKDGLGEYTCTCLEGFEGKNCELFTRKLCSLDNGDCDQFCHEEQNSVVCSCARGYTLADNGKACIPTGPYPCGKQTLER

Molecule | SI [1] | ka,app × SI [1] | ka,app × SI relative to WT [1] | ka,app [1] | SI [2] | ka,app × SI [2] | ka,app × SI relative to WT [2] | ka,app [2] | PZ enhancement [2] | SI [3] | ka,app × SI [3] | ka,app × SI relative to WT [3] | ka,app [3] | H50 rate enhancement [3]
K104A/R105A/K113A/K116A/K125A/R128A: ZPI mutant of the six basic residues in the helix C/D site (protein, UniProt Q9UK55 22-444, looked up, variant K104A R105A K113A K116A K125A R128A) Protein Z-dependent protease …: LAPSPQSPETPAPQNQTSRVVQAPKEEEEDEQEASEEKASEEEKAWLMASRQQLAKETSNFGFSLLRKISMRHDGNMVFSPFGMSLAMTGLMLGATGPTETQIAAGLHLQALAPTAPGLLPSLFAGLAETLSRNLELGLTQGSFAFIHKDFDVKETFFNLSKRYFDTECVPMNFRNASQAKRLMNHYINKETRGKIPKLFDEINPETKLILVDYILFKGKWLTPFDPVFTEVDTFHLDKYKTIKVPMMYGAGKFASTFDKNFRCHVLKLPYQGNATMLVVLMEKMGDHLALEDYLTTDLVETWLRNMKTRNMEVFFPKFKLDQKYEMHELLRQMGIRRIFSPFADLSELSATGRNLQVSRVLQRTVIEVDERGTEAVAGILSEITAYSMPPVIKVDRPFHFMIYEETSGMLLFLGRVVNPTLL | 3.4 ± 0.4 moles ZPI/mole FXa | 9.4 ± 1.6 × 10^3 M^−1 s^−1 | (0.59) | 2.8 ± 0.1 × 10^3 M^−1 s^−1 | 7.7 ± 0.1 moles ZPI/mole FXa | 8.5 ± 0.9 × 10^6 M^−1 s^−1 | (0.19) | 1.1 ± 0.1 × 10^6 M^−1 s^−1 | 904 | 7.8 ± 2.0 moles ZPI/mole FXa | 6.6 ± 2.7 × 10^4 M^−1 s^−1 | (0.06) | 8.5 ± 1.3 × 10^3 M^−1 s^−1 | 7.0 fold
K253A/K260A/R263A/R305A/K308A/R310A: ZPI helix H site sextuple mutant (protein, UniProt Q9UK55 22-444, looked up, variant K253A K260A R263A R305A K308A R310A) Protein Z-dependent protease …: LAPSPQSPETPAPQNQTSRVVQAPKEEEEDEQEASEEKASEEEKAWLMASRQQLAKETSNFGFSLLRKISMRHDGNMVFSPFGMSLAMTGLMLGATGPTETQIKRGLHLQALKPTKPGLLPSLFKGLRETLSRNLELGLTQGSFAFIHKDFDVKETFFNLSKRYFDTECVPMNFRNASQAKRLMNHYINKETRGKIPKLFDEINPETKLILVDYILFKGKWLTPFDPVFTEVDTFHLDKYKTIKVPMMYGAGAFASTFDANFACHVLKLPYQGNATMLVVLMEKMGDHLALEDYLTTDLVETWLANMATANMEVFFPKFKLDQKYEMHELLRQMGIRRIFSPFADLSELSATGRNLQVSRVLQRTVIEVDERGTEAVAGILSEITAYSMPPVIKVDRPFHFMIYEETSGMLLFLGRVVNPTLL | 3.2 ± 0.1 moles ZPI/mole FXa | 2.9 ± 0.2 × 10^3 M^−1 s^−1 | (0.18) | 9.2 ± 0.6 × 10^2 M^−1 s^−1 | 7.4 ± 0.3 moles ZPI/mole FXa | 2.5 ± 0.2 × 10^7 M^−1 s^−1 | (0.57) | 3.4 ± 0.1 × 10^6 M^−1 s^−1 | 8620 | 4.0 ± 0.2 moles ZPI/mole FXa | 2.6 ± 0.3 × 10^4 M^−1 s^−1 | (0.02) | 6.4 ± 0.5 × 10^3 M^−1 s^−1 | 
K253A: ZPI helix H site mutant (protein, UniProt Q9UK55 22-444, looked up, variant K253A) Protein Z-dependent protease …: LAPSPQSPETPAPQNQTSRVVQAPKEEEEDEQEASEEKASEEEKAWLMASRQQLAKETSNFGFSLLRKISMRHDGNMVFSPFGMSLAMTGLMLGATGPTETQIKRGLHLQALKPTKPGLLPSLFKGLRETLSRNLELGLTQGSFAFIHKDFDVKETFFNLSKRYFDTECVPMNFRNASQAKRLMNHYINKETRGKIPKLFDEINPETKLILVDYILFKGKWLTPFDPVFTEVDTFHLDKYKTIKVPMMYGAGAFASTFDKNFRCHVLKLPYQGNATMLVVLMEKMGDHLALEDYLTTDLVETWLRNMKTRNMEVFFPKFKLDQKYEMHELLRQMGIRRIFSPFADLSELSATGRNLQVSRVLQRTVIEVDERGTEAVAGILSEITAYSMPPVIKVDRPFHFMIYEETSGMLLFLGRVVNPTLL | 2.1 ± 0.1 moles ZPI/mole FXa | 8.5 ± 1.2 × 10^3 M^−1 s^−1 | (0.53) | 4.1 ± 0.4 × 10^3 M^−1 s^−1 | 2.4 ± 0.1 moles ZPI/mole FXa | 7.2 ± 0.1 x 10^6 M^−1 s^−1 | (0.16) | 3.0 ± 0.2 × 10^6 M^−1 s^−1 | 847 | 1.5 ± 0.1 moles ZPI/mole FXa | 4.8 ± 0.7 × 10^5 M^−1 s^−1 | (0.40) | 3.2 ± 0.2 × 10^5 M^−1 s^−1 | 56 fold
D298K/E301R/T302K/T309K: ZPI mutant with the helix H heparin-binding site of PCI grafted onto homologous ZPI residues (protein, UniProt Q9UK55 22-444, looked up, variant D298K E301R T302K T309K) Protein Z-dependent protease …: LAPSPQSPETPAPQNQTSRVVQAPKEEEEDEQEASEEKASEEEKAWLMASRQQLAKETSNFGFSLLRKISMRHDGNMVFSPFGMSLAMTGLMLGATGPTETQIKRGLHLQALKPTKPGLLPSLFKGLRETLSRNLELGLTQGSFAFIHKDFDVKETFFNLSKRYFDTECVPMNFRNASQAKRLMNHYINKETRGKIPKLFDEINPETKLILVDYILFKGKWLTPFDPVFTEVDTFHLDKYKTIKVPMMYGAGKFASTFDKNFRCHVLKLPYQGNATMLVVLMEKMGDHLALEDYLTTKLVRKWLRNMKKRNMEVFFPKFKLDQKYEMHELLRQMGIRRIFSPFADLSELSATGRNLQVSRVLQRTVIEVDERGTEAVAGILSEITAYSMPPVIKVDRPFHFMIYEETSGMLLFLGRVVNPTLL | 3.6 ± 0.3 moles ZPI/mole FXa | 2.6 ± 0.2 × 10^4 M^−1 s^−1 | (1.6) | 7.3 ± 0.1 × 10^3 M^−1 s^−1 | 2.2 ± 0.1 moles ZPI/mole FXa | 1.8 ± 0.3 × 10^7 M^−1 s^−1 | (0.41) | 8.4 ± 1.2 × 10^6 M^−1 s^−1 | 692 | 4.6 ± 0.1 moles ZPI/mole FXa | 3.9 ± 0.2 × 10^6 M^−1 s^−1 | (3.2) | 8.3 ± 0.4 × 10^5 M^−1 s^−1 | 150 fold
